Experimental findings from US20260021193A1 (IMMUNOME, published 2026) are described below.

Assay [1] has as its target T1, human ROR-1 endogenously expressed on JeKo-1 and MDA-MB-468 cells (human, UniProt Q01973 30-937).
T1 construct: whole, on cells; also called ROR-1 receptor
Nature of the assay: flow cytometry competition (cellular binning) on MDA-MB-468 cells: cells coated with titrated ATX-P-875, then a saturating dose of the labeled competitor 4A5-PE, whose signal is plotted in % Top MFI. The procedure: (§1) Next, the anti-ROR-1 antibodies were fluorescently labeled with a secondary antibody.
(§2) In Step 2, a fluorescently labeled secondary antibody recognizing the novel antibodies was incubated with the samples.
(In flow cytometry, cells or beads pass a laser one at a time.)

For assay [2], the target named is T1, human ROR-1 endogenously expressed on …. In words: flow cytometry (cellular binning): titration of the antibody on MDA-MB-468 cells, fluorescently labeled secondary antibody, % Top MFI. The procedure:
as §1, §2

For assay [3] the target is unchanged. In words: cell-based or functional assay.
The target is the same in assay [4]. Nature of the assay: cell-based or functional assay. The source holds these as a separate data set.
Assay [5] has the same target. In words: flow cytometry (cellular binning): titration of the antibody on MDA-MB-468 cells, fluorescently labeled secondary antibody, % Top MFI. The procedure: as §1, §2
This is another data set of the same source.

Assay [6] has the same target. Described as above. The procedure:
as §1, §2
This is another data set of the same source.

The target of assay [7] is T2, Hu/Cy/Rh ROR1 - His (Human/Cyno/Rhesus, UniProt Q01973 30-403, limits assumed).
T2 construct: Purified His-tagged ROR1 protein used in SPR; also called Human/Cyno/Rhesus ROR-1; not shown: His tag
In words: SPR, purified Hu/Cy/Rh ROR1-His. A general note: Surface plasmon resonance follows binding to a sensor surface in real time, without labels.

The target of assay [8] is T1, human ROR-1 endogenously expressed on …. Nature of the assay: flow cytometry: titration of the antibody on ROR-1 positive JeKo-1 cells, secondary antibody staining, Net MFI. The procedure:
Cells were washed, stained with secondary antibody and cell binding saturation was detected by flow cytometry and reported as mean fluorescent intensity (MFI).
A cell binding saturation assay was developed to evaluate how well the anti-ROR-1 antibodies developed in Example 22 bound to endogenously expressed extracellular ROR-1 protein on cell lines. […] Cells were then washed and subjected to secondary antibody staining and detection by flow cytometry. Mean fluorescence (MFI) was determined by analysis on cytometer software. […] (See FIGS. 27A-27B).

A further assay concerns the target T3, Mouse ROR1 - His (Mouse, UniProt Q9Z139 30-403, limits assumed).
T3 construct: Purified His-tagged mouse ROR1 protein used in SPR; not shown: His tag
Nature of the assay: SPR, purified Mouse ROR1-His.

Assay [9] concerns the target T1, human ROR-1 endogenously expressed on …. In words: flow cytometry competition (cellular binning) on MDA-MB-468 cells: cells coated with titrated ATX-P-885, then a saturating dose of the labeled competitor Dy650-UC961, whose signal is plotted in % Top MFI. The method, then: as §1, §2
Assay [10] addresses T2, Hu/Cy/Rh ROR1 - His. In words: SPR (Carterra), cell 'Kinetics (KD)' in the head and in the left column of the binning table, antigen Hu/Cy/Rh ROR1-His; no unit stands on the sheet, M is taken from Table 3, where the same KD values of the other four antibodies stand under KD (M).
In assay [11] the target is T1, human ROR-1 endogenously expressed on …. In words: flow cytometry: titration of the antibody on ROR-1 positive JeKo-1 cells, secondary antibody staining, Net MFI. The source holds these as a separate data set.

T3 sequence (Q9Z139 30-403 limits assumed): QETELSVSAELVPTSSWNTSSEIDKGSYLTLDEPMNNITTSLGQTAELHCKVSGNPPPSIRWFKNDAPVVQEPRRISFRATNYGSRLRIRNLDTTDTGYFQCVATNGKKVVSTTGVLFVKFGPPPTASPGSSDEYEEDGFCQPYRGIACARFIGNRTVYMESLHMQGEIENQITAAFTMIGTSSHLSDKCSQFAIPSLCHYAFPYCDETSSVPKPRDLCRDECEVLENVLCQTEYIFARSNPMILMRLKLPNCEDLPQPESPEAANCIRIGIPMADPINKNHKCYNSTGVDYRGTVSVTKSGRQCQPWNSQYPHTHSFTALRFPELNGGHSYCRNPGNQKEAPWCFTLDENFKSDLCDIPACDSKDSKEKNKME

B1: ATX-P-875 (antibody, V domains shown)
VH: not shown
VL: DIQMTQSPSSLSASVGDRVTITCRASQSISSYLNWYQQKPGKAPKLLIYAASSLQSGVPSRFSGSGSGTDFTLTISSLQPEDFATYYCQQYDNLPITFGQGTRLEIKR
As for B1, the “IC50 (read off the curve)” value in assay [1] was around 0.7 nM. Also, the “EC50 (read off the curve)” value in assay [2] was around 0.9 nM. In assay [3], the “JeKo-1 (%) cellular internalization” value turned out to be 75% and the “MDA-MB-468(%) cellular internalization” value amounted to 89%. In addition, the “ROR-1 receptor internalization on JeKo-1 and MDA-MB-468 cells (reduction of surface antibody over 4 hours, flow cytometry)” value in [4] is at least 75%. Moreover, the “EC50 (read off the curve)” value in assay [5] is around 0.5 nM.

B2: ATX-P-885 (antibody, V domains shown)
VH: QVQLQQWGAGLLKPSETLSLTCAVYGGSFSGYYWSWIRQPPGKGLEWIGEINHSGSTNYNPSLKSRVTISVDTSKNQFSLKLSSVTAADTAVYYCAREGVYEDYWGQGTLVTVSS
VL: EIVLTQSPATLSLSPGERATLSCRASQSVSNYLAWYQQKPGQAPRLLIYDAYNRATGIPARFSGSGSGTDFTLTISSLEPEDFAVYYCQQRSNWPLTFGQGTRLEIKR
For the molecule B2, in [6], the “EC50 (read off the curve)” value is around 2 nM. In addition, in the assay with Hu/Cy/Rh ROR1 - His [7], the Kd came to 10.9 nM, the koff was 0.00295 s⁻¹ and the kon stood at 270000 M⁻¹ s⁻¹. For the same molecule, the “EC50 (read off the curve)” value in [8] is around 0.3 nM. In the assay with Mouse ROR1 - His, the dissociation constant Kd came out at 45.3 nM, the koff came out at 0.00132 s⁻¹ and the kon worked out at 29200 M⁻¹ s⁻¹. Also, the “EC50 (read off the curve)” value in [2] is around 3 nM. Moreover, in [3], the “JeKo-1 (%) cellular internalization” value came to 75% and the “MDA-MB-468(%) cellular internalization” value is 89%. Besides, the “IC50 (read off the curve)” value in [9] is around 3 nM. Further, the “ROR-1 receptor internalization on JeKo-1 and MDA-MB-468 cells (reduction of surface antibody over 4 hours, flow cytometry)” value in assay [4] was at least 75%.

B3: 4A5 (antibody, V domains shown)
VH: EVKLVESGGGLVKPGGSLKLSCAASGFTFSSYAMSWVRQIPEKRLEWVASISRGGTTYYPDSVKGRFTISRDNVRNILYLQMSSLRSEDTAMYYCGRYDYDGYYAMDYWGQGTSVTVSS
VL: DIKMTQSPSSMYASLGERVTITCKASPDINSYLSWFQQKPGKSPKTLIYRANRLVDGVPSRFSGGGSGQDYSLTINSLEYEDMGIYYCLQYDEFPYTFGGGTKLEMK
B3: binding in the assay with Hu/Cy/Rh ROR1 - His [10] was put at a Kd of 2.81 nM. This counts as single-digit nanomolar.

B4: UC-961 (ATX-P-453) (antibody, V domains shown)
VH: QVQLQESGPGLVKPSQTLSLTCTVSGYAFTAYNIHWVRQAPGQGLEWMGSFDPYDGGSSYNQKFKDRLTISKDTSKNQVVLTMTNMDPVDTATYYCARGWYYFDYWGHGTLVTVSS
VL: DIVMTQTPLSLPVTPGEPASISCRASKSISKYLAWYQQKPGQAPRLLIYSGSTLQSGIPPRFSGSGYGTDFTLTINNIESEDAAYYFCQQHDESPYTFGEGTKVEIK
In the assay with Hu/Cy/Rh ROR1 - His [7], B4 displayed a Kd of 4.69 nM, a koff of 0.00591 s⁻¹ and a kon of 1.26e+06 M⁻¹ s⁻¹. Besides, the “EC50 (read off the curve)” value in assay [8] was around 0.1 nM. The “EC50 (read off the curve)” value in assay [11] is around 0.02 nM. In addition, in assay [3], the “JeKo-1 (%) cellular internalization” value came to 75% and the “MDA-MB-468(%) cellular internalization” value amounted to 80%.

For orientation: EC50 (read off the curve) means the concentration giving half of the maximal effect. Lower therefore signals an effect from little substance. As a reminder, the Kd is the free concentration of one partner at which half of the binding sites on the other are occupied at equilibrium, for simple one-to-one binding. Low readings indicate higher affinity, high ones lower affinity. What is called koff is the first-order rate constant of dissociation. A high value points to a short-lived complex. Usually kon stands for the second-order rate constant of association. Higher therefore signals fast association.
